Experimental data published in patent US20210171652A1 (University of Pennsylvania, published 2021).

T1: Band 3 / glycophorin A (Wright b, Wrb epitope) on human red blood cells (human, UniProt P02724 20-150)
T1 construct: whole, on cells; also called Band3/GPA; AE1
T1 sequence 1: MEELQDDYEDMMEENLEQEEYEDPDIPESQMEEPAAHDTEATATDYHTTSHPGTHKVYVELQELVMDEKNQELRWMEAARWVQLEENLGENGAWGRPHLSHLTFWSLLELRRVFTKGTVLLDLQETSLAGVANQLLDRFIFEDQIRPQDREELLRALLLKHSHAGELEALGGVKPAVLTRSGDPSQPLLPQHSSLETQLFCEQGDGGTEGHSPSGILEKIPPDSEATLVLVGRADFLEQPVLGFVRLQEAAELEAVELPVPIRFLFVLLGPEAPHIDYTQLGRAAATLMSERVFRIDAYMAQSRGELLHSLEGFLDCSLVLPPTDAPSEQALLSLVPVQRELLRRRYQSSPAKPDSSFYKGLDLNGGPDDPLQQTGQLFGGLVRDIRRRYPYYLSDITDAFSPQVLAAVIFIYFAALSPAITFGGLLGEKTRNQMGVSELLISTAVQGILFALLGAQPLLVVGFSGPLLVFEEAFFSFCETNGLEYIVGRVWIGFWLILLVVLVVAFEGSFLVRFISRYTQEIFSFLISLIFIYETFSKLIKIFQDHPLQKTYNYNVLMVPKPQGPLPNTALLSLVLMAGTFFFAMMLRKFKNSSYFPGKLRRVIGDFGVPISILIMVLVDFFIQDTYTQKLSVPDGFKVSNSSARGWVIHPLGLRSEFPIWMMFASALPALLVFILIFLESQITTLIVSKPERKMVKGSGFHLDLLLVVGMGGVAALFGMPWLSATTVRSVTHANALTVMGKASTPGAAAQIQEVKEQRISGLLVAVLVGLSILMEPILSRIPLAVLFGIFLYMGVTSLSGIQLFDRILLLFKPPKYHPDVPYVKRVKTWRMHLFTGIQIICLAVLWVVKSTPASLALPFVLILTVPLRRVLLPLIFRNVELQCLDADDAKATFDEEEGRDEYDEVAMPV
T1 sequence 2: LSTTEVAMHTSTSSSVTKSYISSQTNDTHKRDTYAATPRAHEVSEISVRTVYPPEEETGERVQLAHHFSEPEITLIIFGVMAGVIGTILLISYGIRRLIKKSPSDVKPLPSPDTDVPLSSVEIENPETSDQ

B1: KP2-09 Fab/phage clone (anti-Band 3, Wrb) (Fab, V domains shown)
VH: EVQLLESGPGLVRPSETLSLTCAVSGYSISSGYGWHWIRQPPGKGLESLGYIGGSRGNTNYNPSLKSRVTISTDTSKNQFSLKLRSVTAADTAVYYCARDSGYNTRYFDYWGQGVLVTVSS
VL: AAELTQSPATLSLSPGERATLSCRASQSVGSRLAWYQQKPGQAPRLLIYGASSRATGIPDRFSGSGSRTDFTLTISSLEPEDVGVYHCQQYNDLLPLTFGGGTKVEIK
B2: KP2-11 Fab/phage clone (anti-Band 3, Wrb) (Fab, V domains shown)
VH: EVQLQLPGPGLVKPSETLSLTCTVSGSSLSSAYGWNWIRQPPGKGLEWIGSIGGSRDNTNYNPSLKRRVTISKDTSKNQFSLKLKSVTAADTAVYYCAQRGAYGYSYFDYWGQGVLVAVSS
VL: ELTLTQSPATLSLSPGETATLSCRASQSLGSRLAWYQQKPGQPPRLLIYGASTRATGIPDRFSGSGSRTDFTLTISSLEPEDVGVYHCQQYNDFPPLTFGGGTKVEIK
B3: KP3-08 Fab/phage clone (anti-Band 3, Wrb) (Fab, V domains shown)
VH: EVQLLESGPGLVKPSETLSLTCTVSGSSLSSAYGWNWIRQPPGKGLEWIGSIGGSRDNTNYNPSLKRRVTISKDTSKNQFSLKLKSVTAADTAVYYCAQRGAYGYSYFDYWGQGVLVAVSS
VL: ELTLTQSPATLSLSPGETATLSCRASQSLGGRLAWYQQKPGQAPRLLIYGASTRATGIPDRFSGSGSRTEFTLTIAGLEPEDVGVYHCQQYNDFLPLTFGGGTKVEIK
B4: KP3-02 Fab/phage clone (anti-Band 3, Wrb) (Fab, V domains shown)
VH: EVQLLESGPGLVRPSETLSLTCAVSGYSISSGYGWHWIRQPPGKGLESLGYIGGSRGNTNYNPSLKSRVTISTDTSKNQFSLKLRSVTAADTAVYYCARDSGYNTRYFDYWGQGVLVTVSS
VL: AAELTQSPATLSLSPGETATLSCRASQSVGSNLAWYQQKPGQAPKLLVHSAYFRATGIPDRFSGSGSRTDFTLTISSLEPEDVGVYHCQQYNDLLPLTFGGGTKVEIK
B5: KP2-01 Fab/phage clone (anti-Band 3, Wrb) (Fab, V domains shown)
VH: EVQLLESGPGLVKPSETLSLTCAVSGDSISSGLGWSWIRQTPGKGLEWIGYIGGSRGNTNYNPSFKSRVTISRDTSKNQFSLRLSSMTAADTAVYYCARRAPYWGYSYLDYWGQGVLVTVSS
VL: AAELTQSPATLSLSPGETATLSCRASQSIGSSLAWYQQRPGQAPKLLVHSAYFRAAGIPDRFSGSGSRTDFTLTISSLEPEDVGVYHCQQYNDLLPLTFGGGTKVELK
B6: KP2-04 Fab/phage clone (anti-Band 3, Wrb) (Fab, V domains shown)
VH: EVQLLESGPGLVKPSETLSLTCAVSGYSLSSAYGWNWIRQSPGKGLEWIGSIGGSRDNVNYNPSLKRRVTISKDTSTNHFSLRLSSVTAADTAVYYCVRRATYGNSYFDSWGQGVQVTVSS
VL: ELTLTQSPATLSLSPGETATLSCRASQSVGSHLAWYQQKPGQAPKLLVHSAYFRATGIPDRFSGSGSRTDFTLTISSLEPEDVGVYHCQQYNDLLPLTFGGGTKVEIK
B7: KP3-05 Fab/phage clone (anti-Band 3, Wrb) (Fab, V domains shown)
VH: EVQLLESGPGLVKPSETLSLTCTVSGSSLSSAYGWNWIRQPPGKGLEWIGSIGGSRDNTNYNPSLKRRVTISKDTSKNQFSLKLKSVTAADTAVYYCAQRGAYGYSYFDYWGQGVLVAVSS
VL: AAELTQSPATLSLSPGETATLSCRASQSVGSSLAWYQQKPGQAPKLLVHSAYFRATGIPDRFSGSGSRTDFTLTISSLEPEDVGVYHCHQYNDLLPLTFGGGTKVEIK
B8: KP2-07 Fab/phage clone (anti-Band 3, Wrb) (Fab, V domains shown)
VH: EVQLLESGPGLVKPSETLSLTCAVSGDSISSGYGWHWIRQVPGRGLEWIGSIGGSRGTTNYNPSLKSRVTISEDTSKNQFSLSLRSVSAADTAVYFCARDSGYSFRYFDFWGQGVLVTVSS
VL: ELVMTQSPATLSLSPGETATLSCRASQSVGSNLAWYQQKPGQAPKLLVHSAYFRATGIPDRFSGSGSRTDFTLTISSLEPEDVGVYHCQQYNDLLPLTFGGGTKVEIN
B9: KP2-08 Fab/phage clone (anti-Band 3, Wrb) (Fab, V domains shown)
VH: EVQLLESGPGLVKPSETLSLTCAVSGYSISSGYGWNWIRQPPGKGLEWIGSIGGSRDNTNYNPSLKSRVTLSKDTSKNHFSLRLRSVTAADTAVYYCARDGGYGSRYMDSWGQGVLVAVSS
VL: AAELTQSPATLSLSPGEAATLSCRASQSIGTSLAWYQQKPGQAPRLLVHSAYFRATGIADRFSGSGSRTDFTLTISSLEPEDVGVYYCQQYNDLLPLTFGGGTKVEIK
B10: KP2-02 Fab/phage clone (anti-Band 3, Wrb) (Fab, V domains shown)
VH: EVQLLESGPGLVKPSETLSLTCAVSGGSLSGGYDWSWIRQSSRKGLEWIGYIYDSRWTTNYNPSLKKRVTISIDTSKNQFSLNLKSVTAADTAVYYCARRGGYGASYFDLWGQGVLVTVSS
VL: AAELTQSPATLSLFPGETATLSCRASQSIGSHLAWYQQKPGQAPKLLVHSVSFRATGIPDRFRGSGSRTDFTLTISSLEPEDVGVYHCQQYNDLLPLTFGGGTKVEIK
B11: KP3-18 Fab/phage clone (anti-Band 3, Wrb) (Fab, V domains shown)
VH: EVQLLEWGPGLVKPSETLSLTCAVSGYSLSSAYGWNWIRQSPGKGLEWIGSIGGSRDNVNYNPSLKRRVTISKDTSTNHFSLRLSSVTAADTAVYYCVRRATYGNSYFDSWGQGVQVTVSS
VL: ELTLTQSPATLSLSPGETATLSCRASQSVGSYLAWYQQKPGQAPKLLVHSAHFRATGIPDRFSGSGSRTDFTLTISSLEPEDVGVYHCQQYNDLLPLTFGGGTKVEIK
B12: KP3-15 Fab/phage clone (anti-Band 3, Wrb) (Fab, V domains shown)
VH: EVQLLESGPGLVKPSETLSLTCTVSGSSLSSAYGWNWIRQPPGKGLEWIGSIGGNRDNTNYNPSLKRRVTISKDTSKNQFSLKLKSVTAADTAVYYCAQRGAYGYSYFDYWGQGVLVAVSS
VL: AAELTQSPATLSVSPGEAATLSCRASQTVGRNLAWYQQKPGQAPKLLVHSAHFRATGIPDRFSGSGSGTDFTLTISSLEPEDAGIYHCQQYNDLLPLTFGGGTKVEIK
B13: KP2-06 Fab/phage clone (anti-Band 3, Wrb) (Fab, V domains shown)
VH: EVQLLESGPGLVKPSETLSLTCTVSGSSLSSAYGWNWIRQPPGKGLEWIGSIGGSRDNTNYNPSLKRRVTISKDTSKNQFSLKLKSVTAADTAVYYCAQRGAYGYSYFDYWGQGVLVAVSS
VL: AAELTQSPATLSLSPGETATLSCRASQSVGSSLAWYQQKPGQAPKLLVHSISVRATGIPDRFSGSGSRTDFTLTITSLEPEDVGVYHCQQYNDFFPLTFGGGTKVEIK
B14: KP3-16 Fab/phage clone (anti-Band 3, Wrb) (Fab, V domains shown)
VH: EVQLLESGPGLVKPSETLSLTCTVSGSSLSSAYGWNWIRQPPGKGLEWIGSIGGSRDNTNYNPSLKRRVTISKDTSKNQFSLKLKSVTAADTAVYYCAQRGAYGYSYFDYWGQGVLVAVSS
VL: AAELTQSPATLSLSPGETATLSCRASQSLGSRLAWYQQKPGQAPRLLIYGASTRATGIPDRFSGSGSRTDFTLTISSLEPEDVGVYHCQQYNDFLPLTFGGGTKVEIK
B15: KP3-13 Fab/phage clone (anti-Band 3, Wrb) (Fab, V domains shown)
VH: EVQLLESGPGLVRPSETLSLTCAVSGGSLSGGYDWSWIRQSPRKGLEWIGYIYDSRGTTNYNPSLKRRVTISIDTSKNQFSLNLKSVTAADTAVYYCARRGGYGASYFDLWGQGVLVTVSS
VL: AAELTQSPATLSLSPGETATLSCRASQSVGSNLAWYQQKPGQAPKLLVHSASVRATGIPDRFSGSGSRTDFTLTISSLEPEDVGVYHCQQYNDFFPLTFGGGTKVEIK

Biological target: T1, Band 3 / glycophorin A (Wright b, Wrb …)
Experiment: Fab/phage binding assays on human RBCs incl. rare RBC types lacking conserved antigens
Experimental: An IgG Fab/phage display library was prepared from the peripheral blood lymphocytes of a hyperimmunized macaque using homologous human V-region oligonucleotides (Siegel D L, R. M., Lee H, Blancher A., Production of large repertories of macaque mAbs to human RBCs using phage display. Transfusion, 1999. 39(S10): p. 92S, which is incorporated herein by reference). Fab/phage specific for human RBCs were isolated by panning on intact human RBCs. Monoclonal Fab/phage were grown to produce antibodies for immunoassays and their corresponding DNA was extracted for sequencing. To identify target epitopes, antibodies were screened against RBCs of known serologic phenotypes, including rare cells lacking highly conserved antigens, using standard immunohematologic techniques (Roback, J. D., Technical Manual. 2014: American Association of Blood Banks (AABB), which is incorporated herein by reference.)
Using antibody phage display, we identified non-human-primate Fab antibody fragments to antigenic determinants on human RBCs. By panning phage libraries on human RBCs, we produced a Fab/phage preparation with >10⁷ RBC-specific clones capable of agglutinating human RBCs. By performing binding assays against rare RBC types lacking highly conserved antigens and epitopes, we identified the target antigens of >30 of these clones. At least 34 clones bound the Wright b (Wrb) epitope formed by a Band 3/GPA interaction, present on the RBCs of essentially 100% of the human population. The Wrb epitope, determined by the protein sequence of Band 3, is a site of association between Band 3 with GPA, and GPA expression is simultaneously required for its presence on the membrane (Huang C H, Reid M E, Xie S S, Blumenfeld 00. Human red blood cell Wright antigens: a genetic and evolutionary perspective on glycophorin A-band 3 interaction. Blood. 1996; 87(9):3942-3947). At least 3 other clones bound to a highly-conserved epitope Rh17(Hr0) on human RhCE protein, also present on essentially 100% of the human population. Both these targets are specific for erythroid lineage (Rojewski M T, Schrezenmeier H, Flegel W A. Tissue distribution of blood group membrane proteins beyond red cells: evidence from cDNA libraries. Transfus Apher Sci.

Binder | binding result
B1 | binds
B2 | binds
B3 | binds
B4 | binds
B5 | binds
B6 | binds
B7 | binds
B8 | binds
B9 | binds
B10 | binds
B11 | binds
B12 | binds
B13 | binds
B14 | binds
B15 | binds
